{
  "source": "a protein production outcome set (Wang et al. 2014)",
  "data": [
    {"assay": "label from the status in PepcDB records", "values": [
      {"sequence": "MLTPRFDIQPAVSVILPTFDRAPLLASAIESVVAQNFAEWELIVVDDGSSDETFEIVDGYLNQHANIRYMKHRNRKAALSRNAGIQAAFGRYITFLDSDDLYLPEHLESRLHLLESMPEVRLISGGFVCEGDPWVRDRDDPEKLIHVSECIAGATMFGRRELFLDIGGFRALDYAEDTDLWERAARSHKVLKIDQPVSYIYRRSPGSITRTYKPAKPLEHHHHHH", "protein production": "not failed"},
      {"sequence": "MLTQANIPSWYEGLNKSGLTPPGPVFSIVWSILYALLAIVGWVLWCSRNESEMRSVFYLYSVQMLMNWAWTPLFFVLHWTGLSFLWILVMAGLTGLLMFSQTNKKKSLAILLLPYLIWLLFAAYLNGVIWLLN", "protein production": "failed"},
      {"sequence": "MLTQFLNLLATIISVISLLIVTYGALIAIISFIINELKRVTGAYTPTNIRKLRAVFGTYLLLGLEFLIASDILKTVLEPTMNELIILGGIVVVRTILSVFLNKEIKELETENN", "protein production": "failed"},
      {"sequence": "MLTQTLDSPSGAKRLRVMSRHEREPVSQSKTDFSQQTRWMLAVRDNRDRLAFAALFDHFAPRLKGFVIRSGTPAHQAEEIVQDVMLTIWRKAAMFDPHRAQVSAWIYQIARNRQIDIARKENRPMPEELKEEPGTEPDASQILGLEQEAGQLKQALANLKPEQREIIEKAYLGELTHQEISAQTGLPLGTIKSRIRLGLERLRYELKDLKQ", "protein production": "failed"},
      {"sequence": "MLTRAIKTQLVLLTVLAVIAVVVLGWYFLRIPSLVGIGRYTLYAELPRSGGLYRTANVTYRGITIGKVTGVEPTERGARATMSIDNGYQIPTDASANVHSVSAVGEQFVDLVSTRTSGPYLRHGQTITTTTVPSQIGPALDAANRGLAVLPKDRVASVLHEASEAVGGLGSSLNRLIEATQAIAHDVRGSLEDIDDIIERSAPIIDSQVNSGNEIARWAANLNTLAAQTAQTDPAVRSILANAAPTADQVNATFSDVRESLPQTLANLEVVIDMLKRYHNGVEQALVFLPQSGAIAQSVTTEFPGQAGLGVGGLALNQPPPCLTGFLPASEWRSPADTSTAPLPKGTYCRIPMDASNVVRGARNNPCVDVPGKRAATPRECRSNEAYVPGGTNPWYGDPNQMLSCPAPAARCDQPVKPGQVIPAPSVNNGINPLPADQLPGTPPPVNDPLQRPGSGTVQCNGQQPNPCVYTPSTFPTTIYDVQSGKVVAPDGVVYSVEASTHAGADGWKVMLAPTG", "protein production": "failed"},
      {"sequence": "MLTTLAIGNYRSINHLVLPLSQLNLVTGANGSGKSNLYKALRLLAETAQGGVVEALAREGGLDSTWWAGPETSARMRRGEVPIQGQHPSEVRRLRLGFATEDLGFAITLGLPIPLPYPSAFMLDPEIKCEAIWGAGAYRPSSLLVERKNALVRAREGNRWAVLDQHADSGESFFNIVGRPRQAPEIGDLRAFINSWRFYDHFRIDRDAPCRQPQLGTRSPVLHHDGRNLASALQTIIEIGDVEDLEEALNDAFPGSRLEINAPPGGLFSVRLHQHGLLRPLEGAELSDGTLRYLLLMAALLTPRPPSLMVLNEPETSLHADLLPALARLIIRASRRSQVWVVSHSAPLINALAACDGCNVLELEKIQGQTQLRGVGLLDEPLWRWAD", "protein production": "failed"},
      {"sequence": "MLTVHRDARDYQIIFLCSFLSLGILARDWSLSPLVIAVVLATALTVQSLFTINQQGNFSRWFSLDTWQSLWRHQGWKSALITGLGLCLLLRANHLSTLILAASLAIASKFLLQAWGKHWFNPANFGIIAALTLTGDAWVSPGQWGTTLWLGAVFLAAGGLVLGKVGRWDTSIMFLAVYAGLDLARNAWLGWPPEVSFHHLENGSLLVFALFMLTDPRSIPNARSSRLIWATAIAIFSLILQYHFYLPTALFWALFCLSPLTVLLDRQFPAPRFQWWQKKNPVPSN", "protein production": "failed"},
      {"sequence": "MLTYYLKTEIQLLFRKKVYLVLSILVPLALYLLFTSILDLPEEAKKPFYKEYMYSMTAFSLSSFCLMQFPIDLINEKTTGWYKNLMRTPLQSHQYYMAKVFKMMFQFILAILLIFIVAHFMKGVEMSTSDWLLSGLILWIGASTFLSVGVLISQINEIQKASSIGNILYLSLAILGGLWFPVSQFPEWMRKIAYVTPTYHLKQVAYEIGKGGTLDYLSLFVLVGYSILFLVVALIIQKRRDVDI", "protein production": "failed"},
      {"sequence": "MLVLIMWLCQQRSCRRLKRGDPMAQFENNRQRLFVPAVAPLYNSTHDLVETILRVAAGLLLVTHGFGKIVNPFGAVGMVESLGFHPGVFWSPLLAATEFFGGILVAIGLFTRPASFAAMIVLLVTVYFHGIVKAEGLGGAEKSILWAAIFLFFAVRGGNRHSVDAKLTREF", "protein production": "failed"},
      {"sequence": "MLVNFIKNFIPHRFYSSKTEIPVVRLHGAIIDSSSSIARTLSLGRCANLLDKAFAYKKAPAVAVIINSPGGSPVQSRLIFKRIRDLAEEKKKQVLMFIEDIAASGGYMIACAGDEIFADPSSIVGSIGVVSASFGFPELLKKIGIERRVYTAGKNKVTLDPFQPEKKTDIEHLKSLQLEVHKTFIDLVKERRAEKLSNDPNIFTGMFWSGKKSVELGLIDGLNDVRSVIKERFGDDTKLRLIIPPKSLFGPKTPSGVTAHAVHTAIDSALMVAQERALWQYYGLLEHHHHHH", "protein production": "not failed"},
      {"sequence": "MLVNGQHYHLINDISGEKPVLLMLHGFTGSSETFQDSISLLKEHFSIIAPDLLGHGKTSCPKEVARYSIENICDDLASILHQLKIDSCFVLGYSMGGRVATAFAAKYKELVRGLVLVSSSPGLRDEKARASRISADNRLADTLDADGIEPFVAYWENLALFASQKNLPFALKKRIRLERLAQNPHGLAKSLRGMGTGKQPSYWENLADFTFPVLLITGNLDEKFEKIAREMKQLLPNSTHVTVQEAGHAVYLEQPNIFSSQLIYWLEGILKEEEK", "protein production": "failed"},
      {"sequence": "MLVSEAVLPLLFYGILTPVYQVILRGKISNVKGFYLAWITAPFLVGYFFYSTLVEVFLLLIFNIIGYIIVLKNKYKYIFPLLLFSAVIIQIFYILTTLHTIHG", "protein production": "failed"},
      {"sequence": "MLVSLLGILLSVIVGFVVTLISTKWVIGLCKKRGFTGKDINKLTKDDVPVLGGIGIVAGFVAGSFTFLLTSYNLSPGIENVVVSILLSSLIIGFLGLLDDIFNISQATRAFLPIFASIPLILYSVGHTIISIPFLGKVNFGILFYIIILPATLTITANAFNMLEGLNGLGAGMGLIMALALAYIGLKSGGTSFYAGIVSIILASVLFGFLIFNFYPAKTFPGNIGTYFIGSVIGSIGISGYMYTALFFLYLPYVIEFVLKAKTRFKGVSFGKIDDQGYLHWDSKPNSLTHIVMRIGKFKEYHIVLIIWGIEILFAILAVVFQTVTITI", "protein production": "failed"},
      {"sequence": "MLVWLSDSQAVALVGLVGGIALGLAARLGRFCTLGAIEDLLYGGSDVRMRMWVLAIGAAMAGSFGLMGLGWLDPGQSYYLSIRWMPLASILGGLMFGYGMALAGNCGYGSIARLGGGDLRAFVIVLVMGVFTYVTLAGPLAPLRNLLFPQIEVAGDLPPGLAHHAHALTGLPVHVIGIGIGLILCLGALSSRDMRQEPKSIFWSLVVAAAIVGGWAGSYWVYQHGFDGLQVVSHSFSAPVGESILYAMTGSVRPLSFAVGSVAGVWAGAFIGSLIKGHFRWEACEDPRELRRQILGAAIMGTGAVIAMGCTVGQGLTAFSLLAISAPVTFLAIFAGAALGLRQLIEGFSAAE", "protein production": "failed"},
      {"sequence": "MLWARLVGLARLEARALSKKERRSLLERLKPYYTRIPFSEKADLRLVKARTDSGEYEIITVDGVPCLFEWSDGRIYPTLQCLKAFGVDWLKGVVLVDKGAAIALAKGAHLMIPGVVGVEGSFTRGDVVAALYHETRTPVMVGVAEVDSSALEKLYREKARGRAVRRVHRLGDALWELAQEVGKRLS", "protein production": "not failed"},
      {"sequence": "MLYLKRILIVGLSFVVGLINIIGNNYTVFALEKNTLVHQNVMSMIQSQRGGLFDPIYTESLEDNWQGDYIYYGEDTDGSALKWQLLDSDNKDFSKNANSTMFLFSDKTIGTSFWYRENDYGFDYSNVKPGETPIYWQKGYEWDKSDLKTNMEDEMKNKFSSIENEGIIFSSKSSEDAQNVAVGLEKLGTTEMTASKWFPLSIQELTNKCYGFSSVPFNRNQAPLGLHTGDKSRVSSDDKNYLIRSYEEHWTKPMENGMRYHPVFVLNSNSVYGANCAGGLNYGNMYTVQSMRPAMNIDTSKVMLVKSHNQKEIIGIKAVNDSKTNEFKLTLLDDKQKLNIENIKTERDKITFDFEAIGNGKYLSVVVQDENNNVMYYGNIKDNLDKVNVGTMTIDLNQIGLNSKSFSSGEYKLSIFTEQLNFDKKTDYSSKFVDVEVVQNNVPPAVINKVPTIVAEDKVLTVGDTFDPLKDVTAYDNEDGIIKLTEANIAANDVNTNKEGTYNVTYKVTDKQGASSTKTITIDVIERIVIPENKPVDKTNNDTNSSNSSKVPQTGDINNIGVLAVTLMMSGSIVIGCNRKKSKANSLSEK", "protein production": "failed"},
      {"sequence": "MLYLNFPSVSIRLFASDESNTLKRWPVFPRSLRQLVMLAFLLILLPLLVLAWQAWQSLNALSDQAALVNRTTLIDARRSEAMTNAALEMERSYRQYCVLDDPTLAKVYQSQRKRYSEMLDAHAGVLPDDKLYQALRQDLNNLAQLQCNNSGPDAAAAARLEAFASANTEMVQATRTVVFSRGQQLQREIAERGQYFGWQSLVLFLVSLVMVLLFTRMIIGPVKNIERMINRLGEGRSLGNSVSFSGPSELRSVGQRILWLSERLSWLESQRHQFLRHLSHELKTPLASMREGTELLADQVVGPLTPEQKEVVSILDSSSRNLQKLIEQLLDYNRKQADSAVELDNVELAPLVETVVSAHSLPARAKMMHTDVDLKATACLAEPMLLMSVLDNLYSNAVHYGAESGNICLRSSLHGARVYIDVINTGTPIPQEERAMIFEPFFQGSHQRKGAVKGSGLGLSIARDCIRRMQGELYLVDESGQDVCFRIELPSSKNTK", "protein production": "failed"},
      {"sequence": "MLYNSEVITYERAPKSEKDTKVENIKKLFILKVLIYAVSSFAISRVVMINSMVPFGIAFLACVLIYKKNDKASFLAAVGSLVGYISISGEVKDSVMYEIGVIIITLLMVVMKEKEDIKKLVTSAIFLLIEFIMFKILVEKLTVQSALIFTLIEIACVCSVYYIIRYGIICLDNIRTKHLFTNEEIISMSVLVALVISGTRNFDIYNVSIRNVLAMVFVIAISYIEGSSAGAAGGIAIGAIIGMNSSDVMIYIGVFGFLGFIAGVFKDFGKWITAGVYLIIFLIIIIYCKNHVDFSLMEAAITCIIFAGIPNKLYKKMECEFNWDRKQSDITNRYIEKMKDIFVKKLENFSEVLFTMSTTLNNLADNDKLTMKNKSCRLVENLADRVCGKCNMNSICWKREIYYTYAAFEELIQNFQEGINKIPDEIERKCVRRKELIKHTDMIINDYIMNEMWRMQVCSGREFMSAQVKNIGTSVENIIDEFSNELKFNVDVEEKIIRLLNKMGIPYKDIMCVNDKRNRNLVKLTMEACGGRQICVKHVLPVINEAVGTLMCVGDDGCSICPETNLCSVTFEETPKYYISSQIVRACKDGEEVNGDSYSFGKGKDGNYNIIISDGMGHGVQAEKESRAVIDLIEKFNESSLNRTMAINTVNSIMTLKFEEDEKFSTVDLCSVDLYSGDAEFIKVGGVTSFIKKKDKIEVINAKTLPIGVLDTVDMEVNHKKVENGDMIVMISDGVVNYDDENAGKVNWIIDFLKNSSANKPKELGEAMLKKAIELSGGKAKDDITIIISKVYSLY", "protein production": "failed"},
      {"sequence": "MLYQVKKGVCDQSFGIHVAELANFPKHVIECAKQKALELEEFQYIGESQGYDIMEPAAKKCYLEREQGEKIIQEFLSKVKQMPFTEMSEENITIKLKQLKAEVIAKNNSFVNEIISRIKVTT", "protein production": "failed"},
      {"sequence": "MMAEGGAADLDTQRSDIATLLKTSLRKGDTWYLVDSRWFKQWKKYVGFDSWDKYQMGDQNVYPGPIDNSGLLKDGDAQSLKEHLIDELDYILLPTEGWNKLVSWYTLMEGQEPIARKVVEQ", "protein production": "not failed"}
    ]}
  ]
}
